From patent publication US20230381316A1 (published 2023)

B1: ScFv Fc 444 (antibody, V domains shown)
VH: VQLQQSGPELEKPGASVKMSCKASGYSFTGYNVNWVRQNNGKSLEWIGNIDPLHGGTTYNQKFKAKATLTVDRSSSTAYLQLKNLTSEDSAVYYCARSSRFDYWGQGTTLTVSS
VL: DIVMTQSHKFMSTSVGDRVNITCKASQDVGTAVAWYQQKPGQSPKLLIYWASTRHTGVPDRFTGSGSGTDFTLTISNVQSEDLADYFCHQFTSYPFTFGSGTSLEMKR
B2: anti-PSMA mouse monoclonal antibody #219 (antibody, V domains shown)
VH: VQLQQSGPELEKPGASVKMSCKASGYSFTGYNVNWVRQNNGKSLEWIGNIDPLHGGTTYNQKFKAKATLTVDRSSSTAYLQLKNLTSEDSAVYYCARSSRFDYWGQGTTLTVSS
VL: DIVMTQSHKFMSTSVGDRVNITCKASQDVGTAVAWYQQKPGQSPKLLIYWASTRHTGVPDRFTGSGSGTDFTLTISNVQSEDLADYFCHQFTSYPFTFGSGTSLEMKR
B3: ScFv Fc 446 (antibody, V domains shown)
VH: VKLQESGPGLVAPSQSLSITCTVSGFSLTDYGVSWIRQPPGKGLEWLGVIWSDGNTYYNSPLKSRLSINKDNSKSQVFLKMNSLQTDDSAMYYCARHKVYTMDYWGQGTSVTVSS
VL: TVLTQSPAIMSASPGEKVTMTCRASSSVSSSYLHWYQQKSSASPKLWIYRTSNLASGVPARFSGSGSGTSYSLTISSLEAEDAATYYCQQYSGYPLTFGAGTKLELKR
B4: anti-PSMA mouse monoclonal antibody #1366 (antibody, V domains shown)
VH: VKLQESGPGLVAPSQSLSITCTVSGFSLTDYGVSWIRQPPGKGLEWLGVIWSDGNTYYNSPLKSRLSINKDNSKSQVFLKMNSLQTDDSAMYYCARHKVYTMDYWGQGTSVTVSS
VL: TVLTQSPAIMSASPGEKVTMTCRASSSVSSSYLHWYQQKSSASPKLWIYRTSNLASGVPARFSGSGSGTSYSLTISSLEAEDAATYYCQQYSGYPLTFGAGTKLELKR
B5: anti-PSMA mouse monoclonal antibody #1377 (antibody, V domains shown)
VH: VQLQQPGAALVRPGASVRLSCKASGYSFTYYWMNWVMQRPGQGLEWIGMIHPSDSETRLSQKFRDKATLTVDKSSSTVYMQLNSPTSDDSAVYYCARDGNFPYYALDYWGQGTSVTVSS
VL: DVVLTQAPLSLPVSLGDQASISCRSSQSLEYSNGNTYLHWYLQKPGQSPELLIYTVSNRFSGVPDRFSGSGSGTDFTLKIHRVEAEDLGVYFCSQSTHVPTFGGGTKLEIKR
B6: anti-PSMA mouse monoclonal antibody #1352 (antibody, V domains shown)
VH: VKLQQSGPELEKPGASVKISCKASGYSFTGYNVNWVKQSNGKSLEWIGNIDPYHGGTTYNQKFEAKATLTVDKSSSTAYMQLKSLTSEDSAVYYCARSSRFDYWGQGTTLTVSS
VL: DIVMTQSHKFMSTSVGDRVNITCKASQDVGTAVAWYQQKPGQSPKFLIYWASTRHTGVPDRFTGSGSGTDFTLTISNVQSEDLADYFCHQYTSYPFTFGSGTKLEMKR
B7: anti-PSMA mouse monoclonal antibody #1207 (antibody, V domains shown)
VH: VKLQQSGPGLVKPSQSLSLTCAVTGYSITSDYAWNWIRKFPGNKLEWMGYISYSGRTTYNPSLESRISITRDTSKNQFFLQLNSVTTEDTATYYCARCYYGSSSRWYGMDYWGRGTSVAVSS
VL: IVLTQSPAIMSASPGVKVTMTCRASSSVDSSYLHWYQQKSGASPQVWIYSTSNLASGVPARFSGSGSGTSYSLTISSVEAEDAATYYCQQYSGYPLTFGGGTKLEIKR
B8: J591 (antibody, V domains shown)
VH: EVQLQQSGPELVKPGTSVRISCKTSGYTFTEYTIHWVKQSHGKSLEWIGNINPNNGGTTYNQKFEDKATLTVDKSSSTAYMELRSLTSEDSAVYYCAAGWNFDYWGQGTTLTVSS
VL: DIVMTQSHKFMSTSVGDRVSIICKASQDVGTAVDWYQQKPGQSPKLLIYWASTRHTGVPDRFTGSGSGTDFTLTITNVQSEDLADYFCQQYNSYPLTFGAGTMLDLK
B9: ScFv Fc 445 (antibody)
chain: VQLQQPGAALVRPGASVRLSCKASGYSFTYYWMNWVMQRPGQGLEWIGMIHPSDSETRLSQKFRDKATLTVDKSSSTVYMQLNSPTSDDSAVYYCARDGNFPYYALDYWGQGTSVTVSSGGGGSGGGGSGGGGSDVVLTQAPLSLPVSLGDQASISCRSSQSLEYSNGNTYLHWYLQKPGQSPELLIYTVSNRFSGVPDRFSGSGSGTDFTLKIHRVEAEDLGVYFCSQSTHVPTFGGGTKLEIKR

Columns and labels:
[1] = biological target: T1, purified recombinant human PSMA protein (PSMA extracellular domain, baculovirus-insect cell expression) (UniProt Q04609 44-750); experiment: SPR (Biacore); Bivalent fit
[2] = biological target: T1, purified recombinant human PSMA protein …; experiment: SPR (Biacore); Langmuir fit
[3] = biological target: T1, purified recombinant human PSMA protein …; experiment: SPR (Biacore)
PSMA = experiment: previously reported; previously reported value

T1 sequence (Q04609 44-750): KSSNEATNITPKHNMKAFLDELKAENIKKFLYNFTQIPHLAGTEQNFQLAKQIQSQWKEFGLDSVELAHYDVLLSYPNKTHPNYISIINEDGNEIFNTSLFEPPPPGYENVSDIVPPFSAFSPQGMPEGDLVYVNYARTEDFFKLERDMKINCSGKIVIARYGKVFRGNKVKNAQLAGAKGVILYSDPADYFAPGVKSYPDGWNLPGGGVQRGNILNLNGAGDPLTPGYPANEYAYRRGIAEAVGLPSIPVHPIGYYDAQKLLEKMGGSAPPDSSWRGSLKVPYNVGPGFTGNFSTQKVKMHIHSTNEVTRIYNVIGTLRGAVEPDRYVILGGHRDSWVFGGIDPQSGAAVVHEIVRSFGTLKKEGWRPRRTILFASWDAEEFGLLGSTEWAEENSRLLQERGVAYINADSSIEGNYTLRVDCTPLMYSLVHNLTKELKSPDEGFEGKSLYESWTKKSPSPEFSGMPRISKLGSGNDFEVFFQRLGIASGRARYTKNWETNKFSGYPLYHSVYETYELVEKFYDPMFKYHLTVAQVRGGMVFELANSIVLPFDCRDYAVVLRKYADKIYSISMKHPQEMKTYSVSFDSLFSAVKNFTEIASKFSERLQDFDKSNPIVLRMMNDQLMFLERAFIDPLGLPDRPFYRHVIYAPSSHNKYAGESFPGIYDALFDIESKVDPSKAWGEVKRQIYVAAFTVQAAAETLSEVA

Row | Binder | Kd [1] | Kd [2] | Kd [3] | Kd (PSMA)
1 | B1 | 4.35 nM |  |  | 
2 | B2 |  | 2.64 nM | 2.64 nM | 
3 | B3 | 1160 nM |  |  | 
4 | B4 | 295 nM |  | 295 nM | 
5 | B5 | 18.6 nM |  | 18.6 nM | 
6 | B6 | 1.99 nM |  | 1.99 nM | 
7 | B7 | 8.13 nM |  | 8.13 nM | 
8 | B8 |  |  |  | 1.83 nM
9 | B9 | 2.55 nM |  |  | 
